# “And” between values parts separate entries of the source, which are not always exact repeats. Identical values can stand only once.
# Molecular target: C-C Chemokine Receptor 5 (CC-CKR5) (human) (UniProt P51681)
# Assay: cell-based or functional assay
Substance,sensitivity of 293T cells co-expressing CD4 and CC-CKR-5 to infection by pseudotyped luciferase reporter virus (orders of magnitude),reduction of infection of HeLa cells expressing CD4 and CC-CKR-5 by macrophage-tropic virus; mixture of chemokines
BaL Env (macrophage-tropic HIV-1 envelope glycoprotein),3 and 4,
MIP-1α (from UniProt P10147 23-92) (ligand),,80% and 70%
JRFL Env (macrophage-tropic HIV-1 envelope glycoprotein),3 and 4,
RANTES (from UniProt P13501 24-91) (ligand),,70% and 80%
MIP-1β (from UniProt P13236 24-92) (ligand),,70% and 80%
ADA Env (macrophage-tropic HIV-1 envelope glycoprotein),3 and 4,
